# Residue numbers refer to the chain shown, from its start. Names and notes keep the numbering of the source.
# T1: mFcγRIV
# T1 construct: also called mouse FcγRIV; not shown: C-terminal His and GST tags (named only on our card)
# T1 chain: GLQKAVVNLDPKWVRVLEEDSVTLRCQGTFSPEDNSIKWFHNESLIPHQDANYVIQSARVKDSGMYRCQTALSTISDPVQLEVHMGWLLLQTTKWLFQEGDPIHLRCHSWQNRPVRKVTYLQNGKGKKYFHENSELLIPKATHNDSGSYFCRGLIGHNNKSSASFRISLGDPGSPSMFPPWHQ
# T2: mFcγRIIb (Mus musculus, UniProt P08101)
# T2 construct: extracellular region, C-terminal His- and GST-tag; also called mouse FcγRII
# T2 sequence (receptor extracellular region, looked up): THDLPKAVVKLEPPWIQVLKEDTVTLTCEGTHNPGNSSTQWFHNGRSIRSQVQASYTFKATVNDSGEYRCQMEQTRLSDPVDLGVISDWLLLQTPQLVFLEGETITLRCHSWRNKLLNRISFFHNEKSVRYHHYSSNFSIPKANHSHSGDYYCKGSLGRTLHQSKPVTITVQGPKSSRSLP
# T3: cynoFcγRIIb (Macaca fascicularis, UniProt A0A140HDP4)
# T3 construct: extracellular region, C-terminal His- and GST-tag; also called cynomolgus monkey FcγRIIb
# T3 sequence (receptor extracellular region): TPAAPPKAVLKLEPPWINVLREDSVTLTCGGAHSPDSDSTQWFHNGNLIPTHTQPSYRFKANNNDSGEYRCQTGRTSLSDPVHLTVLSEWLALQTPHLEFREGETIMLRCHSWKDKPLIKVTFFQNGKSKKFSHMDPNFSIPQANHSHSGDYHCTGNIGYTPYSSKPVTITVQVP
# T4: human FcγRIIa (131R), His- and GST-tagged (human, UniProt P12318 34-217)
# T4 construct: Expressed in HEK293T cells, purified by nickel chromatography; also called R131 FcγRIIa; not shown: 6xHis and GST tags of the pTT5 vector
# T4 sequence (looked up): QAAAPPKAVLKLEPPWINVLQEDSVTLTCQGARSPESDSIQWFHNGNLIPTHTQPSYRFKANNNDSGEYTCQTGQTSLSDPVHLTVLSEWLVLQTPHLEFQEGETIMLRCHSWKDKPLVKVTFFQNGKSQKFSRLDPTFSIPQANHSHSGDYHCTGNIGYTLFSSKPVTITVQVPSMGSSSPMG
# T5: human FcγRIIa (131H), His- and GST-tagged (human, UniProt P12318 34-217)
# T5 construct: also called H131 FcγRIIa; HIIa; not shown: 6xHis and GST tags of the pTT5 vector
# T5 sequence (looked up): T4 sequence (looked up) with R134H
# T6: human FcγRIIb receptor protein (R&D Systems) (human, UniProt P31994 46-217)
# T6 construct: Bought protein injected over captured antibody in Biacore; also called CD32b
# T6 sequence (looked up): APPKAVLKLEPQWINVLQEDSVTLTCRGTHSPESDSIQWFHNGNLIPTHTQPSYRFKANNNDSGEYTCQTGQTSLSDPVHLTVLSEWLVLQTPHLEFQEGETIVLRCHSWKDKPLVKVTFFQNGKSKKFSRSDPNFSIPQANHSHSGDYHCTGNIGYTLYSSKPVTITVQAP
# B1: G236D (antibody, human IgG1, kappa)
# heavy: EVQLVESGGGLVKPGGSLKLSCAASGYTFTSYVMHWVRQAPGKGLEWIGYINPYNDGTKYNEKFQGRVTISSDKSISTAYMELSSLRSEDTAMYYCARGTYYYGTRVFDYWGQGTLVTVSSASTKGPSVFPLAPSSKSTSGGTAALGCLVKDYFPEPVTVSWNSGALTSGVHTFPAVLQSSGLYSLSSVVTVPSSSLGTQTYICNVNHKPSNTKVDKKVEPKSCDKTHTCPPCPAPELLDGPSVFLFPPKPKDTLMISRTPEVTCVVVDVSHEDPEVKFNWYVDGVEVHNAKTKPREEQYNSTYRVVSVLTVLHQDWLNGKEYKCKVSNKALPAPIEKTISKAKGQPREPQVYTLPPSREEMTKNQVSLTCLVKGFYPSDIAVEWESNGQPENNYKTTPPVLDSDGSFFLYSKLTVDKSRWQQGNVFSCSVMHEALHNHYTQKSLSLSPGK
# light: DIVMTQSPATLSLSPGERATLSCRSSKSLQNVNGNTYLYWFQQKPGQSPQLLIYRMSNLNSGVPDRFSGSGSGTEFTLTISSLEPEDFAVYYCMQHLEYPITFGAGTKLEIKRTVAAPSVFIFPPSDEQLKSGTASVVCLLNNFYPREAKVQWKVDNALQSGNSQESVTEQDSKDSTYSLSSTLTLSKADYEKHKVYACEVTHQGLSSPVTKSFNRGEC
# notes: HuAM4G7 anti-CD19 IgG1 (m1) with this Fc substitution, EU index; copies: 2 + 2
# B2: S239D (antibody, human IgG1, kappa)
# heavy: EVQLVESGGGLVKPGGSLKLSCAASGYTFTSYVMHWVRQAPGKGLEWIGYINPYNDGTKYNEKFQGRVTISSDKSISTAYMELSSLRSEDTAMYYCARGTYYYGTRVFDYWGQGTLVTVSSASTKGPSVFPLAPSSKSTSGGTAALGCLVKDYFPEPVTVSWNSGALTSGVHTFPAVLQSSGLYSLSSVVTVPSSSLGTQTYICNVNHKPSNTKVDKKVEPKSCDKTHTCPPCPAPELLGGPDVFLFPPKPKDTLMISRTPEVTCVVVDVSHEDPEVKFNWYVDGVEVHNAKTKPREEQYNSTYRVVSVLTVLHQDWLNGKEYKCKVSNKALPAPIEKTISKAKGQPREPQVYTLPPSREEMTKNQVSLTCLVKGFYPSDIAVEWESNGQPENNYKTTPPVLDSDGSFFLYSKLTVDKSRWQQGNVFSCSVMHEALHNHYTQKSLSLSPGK
# light: B1 light
# notes: as for B1
# B3: L328E (antibody, human IgG1, kappa)
# heavy: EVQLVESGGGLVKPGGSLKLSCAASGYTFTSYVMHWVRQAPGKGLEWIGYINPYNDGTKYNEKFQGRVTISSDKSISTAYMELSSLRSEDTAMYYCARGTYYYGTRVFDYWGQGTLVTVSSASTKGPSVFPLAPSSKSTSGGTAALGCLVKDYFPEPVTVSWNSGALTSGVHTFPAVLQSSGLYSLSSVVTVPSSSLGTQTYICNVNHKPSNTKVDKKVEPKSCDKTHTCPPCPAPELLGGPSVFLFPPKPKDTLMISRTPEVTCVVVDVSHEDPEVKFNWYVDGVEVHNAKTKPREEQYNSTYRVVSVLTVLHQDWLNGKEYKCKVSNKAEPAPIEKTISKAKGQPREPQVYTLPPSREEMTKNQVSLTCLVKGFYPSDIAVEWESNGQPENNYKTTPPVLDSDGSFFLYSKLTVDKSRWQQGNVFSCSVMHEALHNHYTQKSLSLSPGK
# light: B1 light
# notes: as for B1
# B4: L234W/G236D/S239E/S267E (antibody, human IgG1, kappa)
# heavy: EVQLVESGGGLVKPGGSLKLSCAASGYTFTSYVMHWVRQAPGKGLEWIGYINPYNDGTKYNEKFQGRVTISSDKSISTAYMELSSLRSEDTAMYYCARGTYYYGTRVFDYWGQGTLVTVSSASTKGPSVFPLAPSSKSTSGGTAALGCLVKDYFPEPVTVSWNSGALTSGVHTFPAVLQSSGLYSLSSVVTVPSSSLGTQTYICNVNHKPSNTKVDKKVEPKSCDKTHTCPPCPAPEWLDGPEVFLFPPKPKDTLMISRTPEVTCVVVDVEHEDPEVKFNWYVDGVEVHNAKTKPREEQYNSTYRVVSVLTVLHQDWLNGKEYKCKVSNKALPAPIEKTISKAKGQPREPQVYTLPPSREEMTKNQVSLTCLVKGFYPSDIAVEWESNGQPENNYKTTPPVLDSDGSFFLYSKLTVDKSRWQQGNVFSCSVMHEALHNHYTQKSLSLSPGK
# light: B1 light
# notes: HuAM4G7 anti-CD19 IgG1 (m1) with these Fc substitutions, EU index; copies: 2 + 2
# B5: A330D (antibody, human IgG1, kappa)
# heavy: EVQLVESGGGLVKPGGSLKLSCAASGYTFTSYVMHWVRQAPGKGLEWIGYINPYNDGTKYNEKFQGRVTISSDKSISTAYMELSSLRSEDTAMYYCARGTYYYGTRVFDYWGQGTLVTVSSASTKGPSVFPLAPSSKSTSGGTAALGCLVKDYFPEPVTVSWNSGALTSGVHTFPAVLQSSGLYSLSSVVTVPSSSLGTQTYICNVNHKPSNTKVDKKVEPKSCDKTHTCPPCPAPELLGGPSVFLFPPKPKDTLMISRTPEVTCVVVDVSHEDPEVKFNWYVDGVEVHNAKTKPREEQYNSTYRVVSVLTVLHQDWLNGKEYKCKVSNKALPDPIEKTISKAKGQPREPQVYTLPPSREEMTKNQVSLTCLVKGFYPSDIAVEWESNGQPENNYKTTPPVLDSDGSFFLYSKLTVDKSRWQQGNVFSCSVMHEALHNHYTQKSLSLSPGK
# light: B1 light
# notes: as for B1
# B6: anti-CD19 antibody HuAM4G7 IgG1 S239D/S267E (antibody)
# heavy: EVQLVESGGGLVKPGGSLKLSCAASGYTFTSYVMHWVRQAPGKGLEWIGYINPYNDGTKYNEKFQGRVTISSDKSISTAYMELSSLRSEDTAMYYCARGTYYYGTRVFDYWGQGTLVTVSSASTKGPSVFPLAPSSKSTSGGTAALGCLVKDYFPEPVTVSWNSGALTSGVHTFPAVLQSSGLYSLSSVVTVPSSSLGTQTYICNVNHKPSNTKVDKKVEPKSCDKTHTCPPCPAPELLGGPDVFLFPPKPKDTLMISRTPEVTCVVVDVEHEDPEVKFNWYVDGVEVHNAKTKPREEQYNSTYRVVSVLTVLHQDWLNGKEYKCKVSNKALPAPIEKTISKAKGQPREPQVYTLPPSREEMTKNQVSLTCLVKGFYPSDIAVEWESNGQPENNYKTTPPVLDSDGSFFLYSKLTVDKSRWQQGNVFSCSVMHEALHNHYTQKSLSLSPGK
# light: B1 light
# notes: Positions in EU numbering; copies: 2 + 2
# B7: A330H (antibody, human IgG1, kappa)
# heavy: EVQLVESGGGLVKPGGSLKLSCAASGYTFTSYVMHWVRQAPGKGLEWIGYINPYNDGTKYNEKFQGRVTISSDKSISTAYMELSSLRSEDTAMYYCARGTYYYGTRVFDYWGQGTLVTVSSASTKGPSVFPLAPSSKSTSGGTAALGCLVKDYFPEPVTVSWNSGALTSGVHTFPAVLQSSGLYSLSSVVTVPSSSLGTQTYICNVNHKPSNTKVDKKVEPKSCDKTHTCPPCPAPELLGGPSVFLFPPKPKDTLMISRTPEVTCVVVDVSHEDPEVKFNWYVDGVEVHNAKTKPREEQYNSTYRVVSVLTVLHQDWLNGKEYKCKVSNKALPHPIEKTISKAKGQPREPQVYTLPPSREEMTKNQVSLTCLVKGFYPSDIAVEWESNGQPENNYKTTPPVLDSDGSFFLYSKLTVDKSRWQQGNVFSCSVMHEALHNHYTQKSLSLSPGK
# light: B1 light
# notes: as for B1
# What was measured:
# cynoFcγRIIIa [1] = target: T7, cynoFcγRIIIa (Macaca fascicularis, UniProt Q8SPW2); assay: SPR, off-rate
# T7 construct: extracellular region, C-terminal His- and GST-tag; also called cynomolgus monkey FcγRIIIa
# T7 sequence (Q8SPW2 17-208): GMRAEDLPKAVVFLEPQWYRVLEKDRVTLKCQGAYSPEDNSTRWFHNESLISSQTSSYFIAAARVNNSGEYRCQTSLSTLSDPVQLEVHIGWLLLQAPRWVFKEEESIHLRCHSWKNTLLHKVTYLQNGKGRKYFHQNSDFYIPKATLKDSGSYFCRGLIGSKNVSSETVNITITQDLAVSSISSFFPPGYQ
# mFcγRIV [2] = target: T1, mFcγRIV; assay: SPR, off-rate
# mFcγRIIb [3] = target: T2, mFcγRIIb; assay: SPR, off-rate
# cynoFcγRIIb [4] = target: T3, cynoFcγRIIb; assay: SPR, off-rate
# [5] = target: T8, human FcγRIIIa (158V), His- and GST-tagged (human, UniProt P08637 17-208); assay: SPR
# T8 construct: also called V158 FcγRIIIa; VIIIa; not shown: 6xHis and GST tags of the pTT5 vector
# T8 sequence (P08637 17-208 F176V): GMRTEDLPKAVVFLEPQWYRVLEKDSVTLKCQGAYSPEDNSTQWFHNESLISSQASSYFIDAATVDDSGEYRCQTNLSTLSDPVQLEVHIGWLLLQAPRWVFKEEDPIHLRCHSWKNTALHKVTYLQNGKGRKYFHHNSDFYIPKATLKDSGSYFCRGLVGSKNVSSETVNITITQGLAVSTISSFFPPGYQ
# [6] = target: T4, human FcγRIIa (131R), His- and …; assay: SPR
# [7] = target: T5, human FcγRIIa (131H), His- and …; assay: SPR
# [8] = target: T9, human FcγRIIIa (158F), His- and GST-tagged (human, UniProt P08637 17-208); assay: SPR
# T9 construct: also called F158 FcγRIIIa; not shown: 6xHis and GST tags of the pTT5 vector
# T9 sequence (P08637 17-208): as the sequence (P08637 17-208 F176V) above, with V160F counted along it
# [9] = target: T10, human FcγRI receptor protein (R&D Systems) (human, UniProt P12314 16-288); assay: SPR
# T10 construct: also called soluble FcγRI; solFcγRI
# T10 sequence (P12314 16-288 limits assumed): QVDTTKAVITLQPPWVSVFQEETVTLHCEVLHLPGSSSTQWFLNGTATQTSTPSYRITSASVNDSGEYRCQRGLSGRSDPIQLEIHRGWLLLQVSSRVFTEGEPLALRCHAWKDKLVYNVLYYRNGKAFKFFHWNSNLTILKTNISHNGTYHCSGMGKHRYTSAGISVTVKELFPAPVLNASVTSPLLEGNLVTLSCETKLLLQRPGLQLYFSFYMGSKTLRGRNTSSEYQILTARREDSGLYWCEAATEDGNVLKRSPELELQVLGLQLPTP
# [10] = target: T6, human FcγRIIb receptor protein (R&D …); assay: SPR
# cynoFcγRIIIa [11] = target: T7, cynoFcγRIIIa; assay: SPR
# mFcγRIV [12] = target: T1, mFcγRIV; assay: SPR
# mFcγRIIb [13] = target: T2, mFcγRIIb; assay: SPR
# cynoFcγRIIb [14] = target: T3, cynoFcγRIIb; assay: SPR
# cynoFcγRIIb [15] = target: T3, cynoFcγRIIb; assay: SPR, Kd
# Protocol: Variants were screened for receptor affinity using Biacore™ technology, also referred to as Biacore herein, a surface plasmon resonance (SPR) based technology for studying biomolecular interactions in real time. SPR measurements were performed using a Biacore 3000 instrument (Biacore, Piscataway, N.J.). A protein A/G (Pierce Biotechnology) CM5 biosensor chip (Biacore) was generated using a standard primary amine coupling protocol. All measurements were performed using HBS-EP buffer (10 mM HEPES pH 7.4, 0.15 M NaCl, 3 mM EDTA, 0.005% vol/vol surfactant P20, Biacore). Antibodies at 20 nM or 50 nM in HBS-EP buffer were immobilized on the protein A/G surface and FcγRs were injected. After each cycle, the surface was regenerated by injecting glycine buffer (10 mM, pH 1.5). Data were processed by zeroing time and response before the injection of FcγR and by subtracting appropriate nonspecific signals (response of reference channel and injection of running buffer). Kinetic analyses were performed by global fitting of binding data with a 1:1 Langmuir binding model using BIAevaluation software (Biacore).
# Variant antibodies were tested for their affinity to mouse or cynologous monkey FcγRs using Biacore SPR as described above. Specifically, antibodies were first immobilized on a protein A/G chip to high density, and then followed by injections of the extracellular domain of the mouse or cynologous monkey FcγR of interest. Both association and dissociation phases were tracked in real time using the Biacore technology.
# 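Throughout, for Fold vs WT IgG1 (off-rate): fold improvement over WT IgG1 so higher means slower dissociation than WT.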
Binder,Fold vs WT IgG1 [6],Kd [6],Fold vs WT IgG1 [7],Kd [7],Fold vs WT IgG1 [9],Kd [9],Fold vs WT IgG1 [10],Kd [10],Fold vs WT IgG1 (Kd) (mFcγRIIb [13]),binding result (cynoFcγRIIb [15]),binding result [10],further results
B1,0.758 fold,1130 nM,0.167 fold,3870 nM,0.0211 fold,15.6 nM,1.54 fold,953 nM,–,–,–,binding result (cynoFcγRIIIa [1]): no binding; binding result (mFcγRIV [2]): no binding; binding result (mFcγRIIb [3]): no binding; binding result (cynoFcγRIIb [4]): no binding; binding result [5]: no binding; binding result [8]: no binding
B2,3.73 fold,230 nM,1.1 fold,590 nM,3.53 fold,0.0934 nM,3.6 fold,408 nM,2.01 fold,–,–,Fold vs WT IgG1 (Kd) (cynoFcγRIIIa [11]): 7.58 fold; Fold vs WT IgG1 (off-rate) (cynoFcγRIIIa [11]): 2.33 fold; Fold vs WT IgG1 (Kd) (mFcγRIV [12]): 2.52 fold; Fold vs WT IgG1 (off-rate) (mFcγRIV [12]): 1.91 fold; Fold vs WT IgG1 (off-rate) (mFcγRIIb [13]): 2.91 fold; Fold vs WT IgG1 (Kd) (cynoFcγRIIb [14]): 1.64 fold; Fold vs WT IgG1 (off-rate) (cynoFcγRIIb [14]): 1.99 fold; Fold vs WT IgG1 [5]: 8.14 fold; Kd [5]: 23.5 nM; Fold vs WT IgG1 [8]: 6.32 fold; Kd [8]: 214 nM
B3,–,–,–,–,–,–,–,–,0.016 fold,no binding,no binding,–
B4,5.69 fold,151 nM,–,–,–,–,11.4 fold,129 nM,0.029 fold,no binding,–,–
B5,–,–,–,–,–,–,–,–,2.63 fold,no binding,no binding,–
B6,120 fold,7.16 nM,1.27 fold,510 nM,23.2 fold,0.0142 nM,111 fold,13.3 nM,1.75 fold,–,–,Fold vs WT IgG1 (Kd) (cynoFcγRIIIa [11]): 3.88 fold; Fold vs WT IgG1 (off-rate) (cynoFcγRIIIa [11]): 1.68 fold; Fold vs WT IgG1 (Kd) (mFcγRIV [12]): 0.726 fold; Fold vs WT IgG1 (off-rate) (mFcγRIV [12]): 1.54 fold; Fold vs WT IgG1 (off-rate) (mFcγRIIb [13]): 7.87 fold; Fold vs WT IgG1 (Kd) (cynoFcγRIIb [14]): 1.59 fold; Fold vs WT IgG1 (off-rate) (cynoFcγRIIb [14]): 2.53 fold; Fold vs WT IgG1 [5]: 3.74 fold; Kd [5]: 51.2 nM; Kd [8]: 516 nM
B7,–,–,–,–,–,–,–,–,0.013 fold,no binding,no binding,–

# — patent US20130315910A1 (Xencor, published 2013)
